For one assay, the target named is NEM-huIL-18 (human, UniProt Q14116 37-193, cysteines treated with N-ethyl maleiamide (NEM)). Kind of assay: cell-based or functional assay.
Assay [1] deals with T1, Biotinylated rhuIL-18 (biot-IL-18) (human, UniProt Q14116 37-193, NEM-treated cysteines; biotin on lysine residues (mixture with 1, 2, 3 or 4 biotins per huIL-18)).
T1 construct: also called biotinylated NEM-huIL-18; biotinylated IL-18
Kind of assay: biotinylated IL-18 ELISA, hybridoma or B cell supernatant. The text has this: An ELISA was developed to screen for antibodies that bind human IL-18. […] Hybridoma or B cell supernatants were applied and IL-18-bound antibodies were detected using HRP-conjugated anti-human IgGs, following standard ELISA protocols well known in the art.
A general note: An ELISA detects its analyte on a solid surface through an enzyme-linked reagent.

Substitutions are numbered along the chain they refer to. “And” between values parts separate entries of the source, which are not always exact repeats. Equal values may be shown once.

B1: HuMAb 351 (antibody, V domains shown)
VH: ZVQLVESGGGVVQPGRSLRLSCAASGFTFSHYGMHWVRQAPGKGLEWVAVISYDGRNKYYVDSVKGRFTISRDNSKNTLYLQMNSLRAEDTAVFYCAREKGGSGWPPFYYYYGMDVWGQGTTVTVSS
VL: DIVMTQTPLSLSVTPGQPASISCKSSQNLLYSDGETYLCWYLQKPGQPPQLLIYEVSNRFSGVPERFSGSGSGTDFTLKISRVEAEDVGIYYCMQNVQLPLTFGGGTRVEIKR
In the case of B1, in the assay with NEM-huIL-18, the “KG-1 Assays (IC50, M)” value was 2e-10 M.

B2: HuMAb 413 (antibody, V domains shown)
VH: ZTQLQESGPGLVKPSETLSLTCTVSGGSISSRVYYWGWIRQPPGKGLEWIGSIYYSGSTYYSPSLKSRVTISVDTSKNQFSLKLSSVTAADTAIYYCAREDSSAWVFEHWGQGTLVTVSS
VL: EIVLTQSPDTLSLSPGERATLSCRASQILSRNYLAWYQQKPGQAPRLLIYGISIRATGIPDRFSGSGSGADFTLTINRLEPEDFAVYYCQHYDNSLCSFGQGTKLEVKR
For the molecule B2, the “KG-1 Assays (IC50, M)” value with NEM-huIL-18 was 1e-09 M and 7e-10 M.

B3: HuMAb 2.13.1 (antibody, V domains shown)
VH: ZVQLQESGPGLVTPSQTLSLTCTVSGGSISSGGHYWTWIRQHPGKGLEWIGYIYYSGSTYYNPSLKSRLTISVDTSKNQFSLKLSSVAAADTAVYYCARDRGGSGSYWDYWGQGTLVTVSS
VL: EIVLTQSPGTLSLSPGERATLSCRGSRSVSSGYLAWYQQKPGQAPRLLIYGVSIRATGIPDRFSGSGSGTDFTLTISRLEPEDFAVYYCQQYHGSPLTFGGGTKVEIKR
For the molecule B3, the “KG-1 Assays (IC50, M)” value with NEM-huIL-18 is 2e-10 M and 1e-10 M and 7e-11 M.

B4: HuMAb 215 (antibody, V domains shown)
VH: ZVQLQESGPGLVKPSQTLSLTCTVSGGSINSGDYYWSWIRQHPGKGLEWIGHISYRGTTYYNPSLKSRVTISVDTSKNQFSLKLSSVTAADTAVYCCARDRGGGFFDLWGRGTLVTVSS
VL: B3 VL with G25A, V29L, V52A, G69A, H93N, G94Y, K104R, K108N
For the molecule B4, the “KG-1 Assays (IC50, M)” value with NEM-huIL-18 is 1e-10 M and 3e-10 M.

B5: HuMAb 550 (antibody, V domains shown)
VH: B4 VH with D33G, Y61S, C96Y
VL: B3 VL with G25A, R27Q, S30N, G58D, G69A, H93G, G94F, K104R, K108N
notes: KG-1 IC50 printed as TBD
On to B5, for which the binding result in assay [1] is on record as “binds”.

B6: HuMAb 268 (antibody, V domains shown)
VH: ZVQLVESGGGVVQPGRSLRLSCAASGFTFRNYGLHWVRQAPGKGLEWVAVIWYDGSNKYYADSVKGRFTISRDNSKNTLYLQMNSLRAEDTAVYYCARESYYYYGMDVWGQGTTVTVSS
VL: EIVMTQSPATLSVSPGERATLSCRASQSFNSNLVWYQQKPGQAPRLLIYGASTRATGIPARFSGSGSGTEFTLTISSLQSEDFAVYYCQQYNNWTWTFGQGTKVEIKR
Regarding B6, the “KG-1 Assays (IC50, M)” value with NEM-huIL-18 came to 7e-09 M.

B7: HuMAb 2.5.1 (antibody, V domains shown)
VH: ZVQLVQSGTEVKKPGESLKISCKGSGYTVTSYWIGWVRQMPGKGLEWMGFIYPGDSETRYSPTFQGQVTISADKSFNTAFLQWSSLKASDTAMYYCARVGSGWYPYTFDIWGQGTMVTVSS
VL: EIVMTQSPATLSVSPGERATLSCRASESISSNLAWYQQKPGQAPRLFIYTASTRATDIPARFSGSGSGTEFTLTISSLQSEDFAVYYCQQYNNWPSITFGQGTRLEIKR
Regarding B7, in the assay with NEM-huIL-18, the “KG-1 Assays (IC50, M)” value was 3e-10 M and 4e-10 M.

B8: HuMAb 435 (antibody, V domains shown)
VH: ZLQLQESGPGLVKPSETLSLTCTVSGGSIDSRIYYWGWIRQPPGKGLEWIGSIYYRGSTYYNPSLKSRVTISVDTPKNQFSLKLNSVTAADTAVYYCAREDSSAWVFDYWGQGTLATVSS
VL: EIVLTQSPGTLSLSPGERATLSCRASQSVRNNYLNWYQQKPGQAPRLLIYGAFSRATGIPDRFSGSGSGTDFTLTISSLEPEDFVVYYCQQYGNSIDSFGQGTKLEINR
For B8, the “KG-1 Assays (IC50, M)” value in the assay with NEM-huIL-18 was 8e-10 M and 7e-10 M and 4e-10 M.

The values are drawn from patent US20050100965A1 (published 2005).
